How the values were obtained:
T-cells (CD3) = assay: Immuno-PET ROI analysis of 89Zr-DFO-anti-CD3 after therapy (tumor infiltrating T-cells); assay type: in vivo, murine subjects
Method: FIG. 13A-13C describes a method and results for T-cell detection using immuno-positron emission tomography (PET).
FIG. 14A-14D show graphical representations of tumor infiltrating T-cell analysis after administration of a therapeutic compound or control. Infiltration was measured using immuno-positron emission tomography (PET).

[1] = OLINDA dosimetry to adult male from mouse biodistribution
RM1-PGLS tumors = assay type: in vivo, murine subjects
Method: FIG. 11A-11C show a visual schematic of RM1-PGLS tumor insertion in mice followed by T-cell population analysis (FIG. 11A), and tumor efficacy study analysis for in vivo tumor treatment with experimental ^177Lu-RIMS-1 compound compared with control compounds: ^177Lu-PSMA-617, unlabeled Lu-RIMS, and saline (FIG. 11B) measuring tumor volume (left), and percent survival (right).
Murine subjects were treated with RIMS compounds and tumor volume (FIG. 11B, left), subject viability measured as percent survival (FIG. 11B, right), subject weight (FIG. 11C), were described and analyzed as shown in FIGS. 11A-11C. Median overall survivability (OS) in murine subjects treated with RIMS compounds and control therapies.

[2] = system: CD8+ and CD4+ T-cell populations; assay: T-cell population analysis in spleen and tumor of RM1-PGLS bearing mice; assay type: in vivo; design: unit not given here; conditions: RM1-PGLS bearing C57BL/6J mice
Method: FIG. 12A-12B show graphical representations of T-cell population analysis measuring cell viability in the spleen (FIG. 12A). and in the tumor (FIG. 12B) in vivo for subjects having RM1-PGLS tumors with either an experimental ^177Lu-RIMS compound, or a control compound selected from: ^177Lu-PSMA-617, unlabeled Lu-RIMS, or a control vehicle.
^177Lu-RIMS-1 and control compounds were evaluated for immune cell recruitment.

in vivo = conditions: C57BL/6J, mouse, total radioactivity, Biodistribution Blood (% ID/g ± SD)

## CCCCc1nc2c(N)nc3ccccc3c2n1Cc1ccc(CNC(=O)OCc2ccc(NC(=O)[C@H](C)NC(=O)[C@@H](NC(=O)CCCCC(=O)N[C@@H](CCCCNC(=O)CN3CCN(CC(=O)O)CCN(CC(=O)O)CCN(CC(=O)O)CC3)C(=O)NC[C@H]3CC[C@H](C(=O)N[C@@H](Cc4ccc5ccccc5c4)C(=O)NCCCC[C@H](NC(=O)N[C@@H](CCC(=O)O)C(=O)O)C(=O)O)CC3)C(C)C)cc2)cc1 [^177Lu-RIMS-1, metal not drawn]
T-cells (CD3); Blood, 8 days after administration of therapy
  % Injected Dose/cc of 89Zr-DFO-anti-CD3 (ROI): 7.95 ± 0.75 % Injected Dose/cc
T-cells (CD3); Blood, 9 days after administration of therapy
  % Injected Dose/cc of 89Zr-DFO-anti-CD3 (ROI): 7.075 ± 0.94 % Injected Dose/cc
T-cells (CD3); Blood, 10 days after administration of therapy
  % Injected Dose/cc of 89Zr-DFO-anti-CD3 (ROI): 4.98 ± 0.61 % Injected Dose/cc
T-cells (CD3); Blood, 11 days after administration of therapy
  % Injected Dose/cc of 89Zr-DFO-anti-CD3 (ROI): 4.33 ± 1.40 % Injected Dose/cc
T-cells (CD3); Blood, 12 days after administration of therapy
  % Injected Dose/cc of 89Zr-DFO-anti-CD3 (ROI): 3.07 ± 1.23 % Injected Dose/cc
T-cells (CD3); Spleen, 8 days after administration of therapy
  % Injected Dose/cc of 89Zr-DFO-anti-CD3 (ROI): 15.65 ± 0.96 % Injected Dose/cc
T-cells (CD3); Spleen, 9 days after administration of therapy
  % Injected Dose/cc of 89Zr-DFO-anti-CD3 (ROI): 19.39 ± 3.46 % Injected Dose/cc
T-cells (CD3); Spleen, 10 days after administration of therapy
  % Injected Dose/cc of 89Zr-DFO-anti-CD3 (ROI): 18.45 ± 1.30 % Injected Dose/cc
T-cells (CD3); Spleen, 11 days after administration of therapy
  % Injected Dose/cc of 89Zr-DFO-anti-CD3 (ROI): 19.06 ± 2.34 % Injected Dose/cc
T-cells (CD3); Spleen, 12 days after administration of therapy
  % Injected Dose/cc of 89Zr-DFO-anti-CD3 (ROI): 18.54 ± 1.04 % Injected Dose/cc
T-cells (CD3); Tumor, 8 days after administration of therapy
  % Injected Dose/cc of 89Zr-DFO-anti-CD3 (ROI): 15.85 ± 3.12 % Injected Dose/cc
T-cells (CD3); Tumor, 9 days after administration of therapy
  % Injected Dose/cc of 89Zr-DFO-anti-CD3 (ROI): 14.94 ± 2.65 % Injected Dose/cc
T-cells (CD3); Tumor, 10 days after administration of therapy
  % Injected Dose/cc of 89Zr-DFO-anti-CD3 (ROI): 13.74 ± 3.74 % Injected Dose/cc
T-cells (CD3); Tumor, 11 days after administration of therapy
  % Injected Dose/cc of 89Zr-DFO-anti-CD3 (ROI): 12.20 ± 4.43 % Injected Dose/cc
T-cells (CD3); Tumor, 12 days after administration of therapy
  % Injected Dose/cc of 89Zr-DFO-anti-CD3 (ROI): 11.83 ± 5.22 % Injected Dose/cc
[1]; Target Organ Adrenals
  OLINDA dosimetry to Adult Male, Adrenals: 8.71 μSv/MBq
[1]; Target Organ Brain
  OLINDA dosimetry to Adult Male, Brain: 0.02 μSv/MBq
[1]; Target Organ Esophagus
  OLINDA dosimetry to Adult Male, Esophagus: 2.03 μSv/MBq
[1]; Target Organ Eyes
  OLINDA dosimetry to Adult Male, Eyes: 0.02 μSv/MBq
[1]; Target Organ Gallbladder Wall
  OLINDA dosimetry to Adult Male, Gallbladder Wall: 7.09 μSv/MBq
[1]; Target Organ Heart Wall
  OLINDA dosimetry to Adult Male, Heart Wall: 16.60 μSv/MBq
[1]; Target Organ Kidneys
  OLINDA dosimetry to Adult Male, Kidneys: 262.00 μSv/MBq
[1]; Target Organ Left Colon
  OLINDA dosimetry to Adult Male, Left Colon: 1.26 μSv/MBq
[1]; Target Organ Liver
  OLINDA dosimetry to Adult Male, Liver: 219.00 μSv/MBq
[1]; Target Organ Lungs
  OLINDA dosimetry to Adult Male, Lungs: 15.10 μSv/MBq
[1]; Target Organ Osteogenic Cells
  OLINDA dosimetry to Adult Male, Osteogenic Cells: 3.70 μSv/MBq
[1]; Target Organ Pancreas
  OLINDA dosimetry to Adult Male, Pancreas: 2.49 μSv/MBq
[1]; Target Organ Prostate
  OLINDA dosimetry to Adult Male, Prostate: 0.34 μSv/MBq
[1]; Target Organ Rectum
  OLINDA dosimetry to Adult Male, Rectum: 0.25 μSv/MBq
[1]; Target Organ Red Marrow
  OLINDA dosimetry to Adult Male, Red Marrow: 1.39 μSv/MBq
[1]; Target Organ Right Colon
  OLINDA dosimetry to Adult Male, Right Colon: 1.94 μSv/MBq
[1]; Target Organ Salivary Glands
  OLINDA dosimetry to Adult Male, Salivary Glands: 0.05 μSv/MBq
[1]; Target Organ Small Intestine
  OLINDA dosimetry to Adult Male, Small Intestine: 3.60 μSv/MBq
[1]; Target Organ Spleen
  OLINDA dosimetry to Adult Male, Spleen: 228.00 μSv/MBq
[1]; Target Organ Stomach Wall
  OLINDA dosimetry to Adult Male, Stomach Wall: 2.02 μSv/MBq
[1]; Target Organ Thymus
  OLINDA dosimetry to Adult Male, Thymus: 0.95 μSv/MBq
[1]; Target Organ Thyroid
  OLINDA dosimetry to Adult Male, Thyroid: 0.36 μSv/MBq
[1]; Target Organ Total Body
  OLINDA dosimetry to Adult Male, Today Body: 7.73 μSv/MBq
[1]; Target Organ Tumor
  OLINDA dosimetry to Adult Male, Tumor: 237.00 μSv/MBq
[1]; Target Organ Urinary Bladder Wall
  OLINDA dosimetry to Adult Male, Urinary Bladder Wall: 10.90 μSv/MBq
RM1-PGLS tumors; mouse, in vivo
  Relative body weight: decrease in relative body weight
RM1-PGLS tumors; overall survival post treatment, RM1-PGLS tumors, P < 0.0007 printed for 177Lu-RIMS-1
  Median OS: 30 days
[2]; Spleen
  Total CD4+ T-cell population: 14.51 ± 2.24
  Total CD8+ T-cell population: 7.70 ± 0.84
[2]; Tumor
  Total CD4+ T-cell population: 2.07 ± 1.54
  Total CD8+ T-cell population: 4.72 ± 2.70
In vivo
  tissue uptake at 2 h: 2.28 ± 0.29 %ID/g
  tissue uptake at 24 h: 0.11 ± 0.01 %ID/g
  tissue uptake at 72 h: 0.2 %ID/g

Reference: patent publication US20250090695A1, “IMMUNOSTIMULANT-CYTOTOXIC CONJUGATE COMPOSITION AND METHODS FOR CANCER TREATMENT” (The Research Foundation for the State University of New York, priority 2022, published 2025)
